From patent publication US20130331317A1 (NEW YORK UNIVERSITY, published 2013)

Legend:
[1] = target: binary complex of FGFR1c ligand-binding domain with murine αKlotho ectodomain (murine;human) (UniProt O35082); assay: SPR
[2] = target: T1, ligand-binding domain of human FGFR1c (D142 to R365) (human, UniProt P11362 142-365); assay: SPR; increasing concentrations of FGFR1c ligand-binding domain passed over immobilised FGF21
T1 construct: range 142-365
T1 sequence (looked up): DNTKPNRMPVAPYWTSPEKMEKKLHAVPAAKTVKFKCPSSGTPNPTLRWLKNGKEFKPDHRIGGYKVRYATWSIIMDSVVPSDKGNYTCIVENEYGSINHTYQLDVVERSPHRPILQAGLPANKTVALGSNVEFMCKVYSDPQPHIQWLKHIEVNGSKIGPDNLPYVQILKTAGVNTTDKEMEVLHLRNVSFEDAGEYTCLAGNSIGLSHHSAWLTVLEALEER
Source text: (§1) FIGS. 10A-10D show overlays of SPR sensorgrams illustrating binding of FGFR1c to FGF2 (FIG. 10A), FGF19 (FIG. 10B), FGF21 (FIG. 10C), and FGF23 (FIG. 10D), and fitted saturation binding curves. Increasing concentrations of FGFR1c ligand-binding domain were passed over a biosensor chip containing immobilized FGF2, FGF19, FGF21, or FGF23. […] Increasing concentrations of αKlotho-FGFR1c complex were passed over a biosensor chip containing immobilized FGF23. […] FGF23^C-tail was immobilized on a biosensor chip and increasing concentrations of FGFR1c ligand-binding domain were passed over the chip. Dissociation constants (KDs) given in FIGS. 10A-10E were derived from the saturation binding curves.
(§2) Surface plasmon resonance (SPR) experiments were performed on a Biacore 2000 instrument (Biacore AB), and the interactions were studied at 25° C. in HBS-EP buffer (10 mM HEPES-NaOH, pH 7.4, 150 mM NaCl, 3 mM EDTA, 0.005% (v/v) polysorbate 20). To study endocrine FGF-heparin interactions, a heparin chip was prepared by immobilizing biotinylated heparin (Sigma-Aldrich) on flow channels of a research-grade streptavidin chip (Biacore AB). The coupling density was ˜5 fmol mm⁻² of flow channel. To measure binding of chimeric FGF2 proteins to heparin, biotinylated heparin was coupled to a streptavidin chip at an approximately 4-fold lower density as judged based on the binding responses obtained for FGF1. […]

[3] = target: T2, binary complex of FGFR1c ligand-binding domain with murine βKlotho ectodomain (murine; human, UniProt P11362 142-365); assay: SPR competition; FGF21 in solution mixed with βKlotho-FGFR1c complex, passed over immobilised FGF21
T2 construct: range 142-365; also called βKlotho-FGFR1c complex; βKlotho-FGFR1c; not shown: C-terminal FLAG tag
T2 sequence 1: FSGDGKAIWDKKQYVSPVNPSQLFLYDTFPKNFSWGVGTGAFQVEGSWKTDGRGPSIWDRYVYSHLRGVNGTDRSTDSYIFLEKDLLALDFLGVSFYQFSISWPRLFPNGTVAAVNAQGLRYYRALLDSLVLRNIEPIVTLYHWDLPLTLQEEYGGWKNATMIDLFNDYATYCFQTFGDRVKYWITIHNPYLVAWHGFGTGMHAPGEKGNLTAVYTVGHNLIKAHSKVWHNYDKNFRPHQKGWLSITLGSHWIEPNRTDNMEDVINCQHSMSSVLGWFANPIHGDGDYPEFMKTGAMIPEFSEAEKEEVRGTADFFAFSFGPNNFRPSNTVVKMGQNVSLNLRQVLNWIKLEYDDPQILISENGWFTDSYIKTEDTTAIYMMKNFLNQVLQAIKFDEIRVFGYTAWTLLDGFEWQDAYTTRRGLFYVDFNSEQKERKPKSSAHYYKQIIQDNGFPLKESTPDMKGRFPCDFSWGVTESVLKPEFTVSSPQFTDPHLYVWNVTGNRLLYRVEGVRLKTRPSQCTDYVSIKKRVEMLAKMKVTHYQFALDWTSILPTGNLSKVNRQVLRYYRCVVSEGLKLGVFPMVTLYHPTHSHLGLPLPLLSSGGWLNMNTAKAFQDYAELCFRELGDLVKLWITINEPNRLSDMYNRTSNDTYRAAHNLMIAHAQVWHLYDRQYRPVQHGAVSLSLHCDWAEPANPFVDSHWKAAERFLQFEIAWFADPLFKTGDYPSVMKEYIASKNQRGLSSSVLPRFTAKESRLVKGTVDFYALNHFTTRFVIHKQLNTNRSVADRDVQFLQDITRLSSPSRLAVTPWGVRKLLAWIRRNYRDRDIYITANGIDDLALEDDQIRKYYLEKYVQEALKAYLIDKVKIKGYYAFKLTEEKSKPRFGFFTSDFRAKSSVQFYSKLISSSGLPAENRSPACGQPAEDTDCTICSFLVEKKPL
T2 sequence 2: T1 sequence (looked up)
Source text: To this end, a SPR-based binding competition assay was employed. FGF23 was immobilized onto a SPR biosensor chip, and mixtures of a fixed concentration of binary αKlotho-FGFR1c complex with increasing concentrations of FGF2^ΔHBScore-FGF23^C-tail chimera were passed over the chip. […] To test whether the FGF2^ΔHBScore-FGF21^C-tail chimera can likewise form a ternary complex with FGFR1c and βKlotho, FGF21 was coupled to a SPR biosensor chip, and mixtures of the binary βKlotho-FGFR1c complex with FGF2^ΔHBScore-FGF21^C-tail were passed over the chip. […] To further confirm the binding specificity of the FGF2^ΔHBScore-FGF23^C-tail chimera for the αKlotho-FGFR1c complex, FGF2^ΔHBScore-FGF23^C-tail and βKlotho-FGFR1c complex were mixed at a molar ratio of 10:1, and the mixture was injected over a chip containing immobilized FGF21. […] For the FGF2^ΔHBScore-FGF21^C-tail chimera, we investigated whether it is able to activate FGFR1c in a βKlotho-dependent fashion in cells. HEK293 cells were transfected with βKlotho and then stimulated with FGF2^ΔHBScore-FGF21^C-tail or FGF21.

[4] = target: T3, ligand-binding domain of human FGFR1c (D142 to R365) (human, UniProt P11362 142-365); assay: SPR
T3 chain: T1 sequence (looked up)

[5] = target: T1, ligand-binding domain of human FGFR1c …; assay: SPR; increasing concentrations of FGFR1c ligand-binding domain passed over immobilised FGF23
Source text: as §1, §2

[6] = target: T4, binary complex of FGFR1c ligand-binding domain with murine αKlotho ectodomain (murine; human, UniProt O35082 35-982; P11362 142-365); assay: SPR; FGFR1c ligand-binding domain or αKlotho-FGFR1c complex passed over immobilised FGF23 (FIGS. 10D and 10E)
T4 construct: range 35-982;range 142-365; αKlotho ectodomain was expressed in HEK293 cells; also called αKlotho-FGFR1c complex; αKlotho-FGFR1c; not shown: C-terminal FLAG tag
T4 sequence (looked up) 1: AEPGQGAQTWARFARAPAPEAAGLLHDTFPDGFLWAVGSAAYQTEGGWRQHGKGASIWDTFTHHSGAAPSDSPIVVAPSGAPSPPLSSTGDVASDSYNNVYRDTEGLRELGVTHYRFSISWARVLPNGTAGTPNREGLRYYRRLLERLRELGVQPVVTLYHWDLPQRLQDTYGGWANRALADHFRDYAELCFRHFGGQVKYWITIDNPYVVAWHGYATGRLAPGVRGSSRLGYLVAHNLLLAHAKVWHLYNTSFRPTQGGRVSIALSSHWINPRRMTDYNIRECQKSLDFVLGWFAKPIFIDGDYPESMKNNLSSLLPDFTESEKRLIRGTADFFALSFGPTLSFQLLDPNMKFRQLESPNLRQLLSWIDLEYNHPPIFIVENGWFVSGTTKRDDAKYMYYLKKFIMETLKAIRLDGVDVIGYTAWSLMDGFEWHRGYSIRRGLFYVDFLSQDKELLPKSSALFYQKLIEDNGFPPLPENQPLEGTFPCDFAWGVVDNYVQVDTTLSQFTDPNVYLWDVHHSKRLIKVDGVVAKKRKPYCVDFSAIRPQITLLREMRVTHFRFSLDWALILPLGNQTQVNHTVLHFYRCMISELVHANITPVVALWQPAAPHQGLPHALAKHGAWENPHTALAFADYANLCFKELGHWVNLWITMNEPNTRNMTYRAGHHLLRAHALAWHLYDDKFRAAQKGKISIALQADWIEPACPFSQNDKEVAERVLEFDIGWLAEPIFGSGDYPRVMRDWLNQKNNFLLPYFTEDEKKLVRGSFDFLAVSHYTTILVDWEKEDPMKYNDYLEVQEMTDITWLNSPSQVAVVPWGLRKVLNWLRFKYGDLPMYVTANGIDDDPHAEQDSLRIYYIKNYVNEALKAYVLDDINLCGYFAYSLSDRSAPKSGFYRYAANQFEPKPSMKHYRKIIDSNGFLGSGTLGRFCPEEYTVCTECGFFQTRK
T4 sequence (looked up) 2: T1 sequence (looked up)
Source text: as §1, §2

[7] = target: T1, ligand-binding domain of human FGFR1c …; assay: SPR; FGF23^C-tail immobilised on the chip, increasing concentrations of FGFR1c ligand-binding domain passed over it
Source text: as §1, §2

human FGF23 (Y25 to I251), N-terminally hexahistidine-tagged mature form, with R176Q/R179Q (from UniProt Q9GZV9 25-251)
Kd [1]: 27.4 nM

B1: human FGF21 (H29 to S209), N-terminally hexahistidine-tagged mature form (ligand)
chain: HPIPDSSPLLQFGGQVRQRYLYTDDAQQTEAHLEIREDGTVGGAADQSPESLLQLKALKPGVIQILGVKTSRFLCQRPDGALYGSLHFDPEACSFRELLLEDGYNVYQSEAHGLPLHLPGNKSPHRDPAPRGPARFLPLPGLPPALPEPPGILAPQPPDVGSSDPLSMVGPSQGRSPSYAS
notes: also called native FGF21; not shown: N-terminal hexahistidine tag
binding result [2]: binds | binding result [3]: binds | Kd [4]: 2520 nM

B2: human FGF23 (Y25 to I251), N-terminally hexahistidine-tagged mature form, with R176Q/R179Q (ligand)
chain: YPNASPLLGSSWGGLIHLYTATARNSYHLQIHKNGHVDGAPHQTIYSALMIRSEDAGFVVITGVMSRRYLCMDFRGNIFGSHYFDPENCRFQHQTLENGYDVYHSPQYHFLVSLGRAKRAFLPGMNPPPYSQFLSRRNEIPLIHFNTPIPRQHTQSAEDDSERDPLNVLKPRARMTPAPASCSQELPSAEDNSPMASDPLGVVRGGRVNTHAGGTGPEGCRPFAKFI
notes: also called native FGF23; wild-type FGF23; not shown: N-terminal hexahistidine tag
binding result [5]: binds | fold enhancement of affinity (αKlotho-FGFR1c complex against FGFR1c alone) [6]: > 20 fold | Kd [4]: 648 nM

B3: N-terminally hexahistidine-tagged C-terminal tail peptide of FGF23 (S180 to I251) (peptide)
peptide: SAEDDSERDPLNVLKPRARMTPAPASCSQELPSAEDNSPMASDPLGVVRGGRVNTHAGGTGPEGCRPFAKFI
notes: also called FGF23^C-tail; not shown: N-terminal hexahistidine tag
binding result [7]: no binding
